Key:
[1] = target: Aspergillus fumigatus core CCAAT-binding complex (HapB(230–299), HapC(40–137), HapE(47–164)) (Aspergillus fumigatus); assay: SPR; Biacore T200, 25°C; biotinylated 37-bp cccA promoter duplex (full motif) on streptavidin-coated CM3 chip; CBC injected, HapX(24–158) co-injected on preformed binary CBC/DNA complexes in the steady-state phase; 10 mM phosphate pH 7.4, 2.7 mM KCl, 137 mM NaCl, 1 mM DTT, 0.005% P20, 10 μg/ml poly(dI-dC); 1:1 model with mass transport term
[2] = system: CBC (HapB/HapC/HapE core CCAAT-binding complex) (Aspergillus fumigatus); assay: SPR; conditions: SPR Biacore T200, 25 C; 10 mM phosphate pH 7.4, 2.7 mM KCl, 137 mM NaCl, 1 mM DTT, 0.005% surfactant P20, 10 ug/ml poly(dI-dC); biotin-DNA on streptavidin CM3 …
[3] = target: CBC (HapB/HapC/HapE core CCAAT-binding complex);HapX(24-158) (Aspergillus fumigatus;Aspergillus fumigatus) (UniProt Q4WER3); assay: SPR; conditions: SPR Biacore T200, 25 C; 10 mM phosphate pH 7.4, 2.7 mM KCl, 137 mM NaCl, 1 mM DTT, 0.005% surfactant P20, 10 ug/ml poly(dI-dC); biotin-DNA on streptavidin CM3 …

## Aspergillus fumigatus HapX(24–158) (from UniProt Q4WER3 24-158) (domain or fragment)
[1]
  KD on CBC-coated DNA (preformed CBC/DNA complex, 37-bp cccA promoter duplex): 1.97 nM
  stoichiometry N (HapX chains per CBC): 2

## AAATCCACCAATCAACGCCTCCGTGATTGTCAGCAAT (double strand) [cccAp-369-37]
[2]
  Kd: 0.7 nM
[3]
  Kd: 1.97 nM

— article PMC4232046
